T1: human EPHB1 without signal sequence, FLAG-tagged, expressed from pFLAG-EPHB1 (human, UniProt P54762 18-984)
T1 construct: not shown: FLAG tag supplied by the vector pFLAG-GW
T1 sequence: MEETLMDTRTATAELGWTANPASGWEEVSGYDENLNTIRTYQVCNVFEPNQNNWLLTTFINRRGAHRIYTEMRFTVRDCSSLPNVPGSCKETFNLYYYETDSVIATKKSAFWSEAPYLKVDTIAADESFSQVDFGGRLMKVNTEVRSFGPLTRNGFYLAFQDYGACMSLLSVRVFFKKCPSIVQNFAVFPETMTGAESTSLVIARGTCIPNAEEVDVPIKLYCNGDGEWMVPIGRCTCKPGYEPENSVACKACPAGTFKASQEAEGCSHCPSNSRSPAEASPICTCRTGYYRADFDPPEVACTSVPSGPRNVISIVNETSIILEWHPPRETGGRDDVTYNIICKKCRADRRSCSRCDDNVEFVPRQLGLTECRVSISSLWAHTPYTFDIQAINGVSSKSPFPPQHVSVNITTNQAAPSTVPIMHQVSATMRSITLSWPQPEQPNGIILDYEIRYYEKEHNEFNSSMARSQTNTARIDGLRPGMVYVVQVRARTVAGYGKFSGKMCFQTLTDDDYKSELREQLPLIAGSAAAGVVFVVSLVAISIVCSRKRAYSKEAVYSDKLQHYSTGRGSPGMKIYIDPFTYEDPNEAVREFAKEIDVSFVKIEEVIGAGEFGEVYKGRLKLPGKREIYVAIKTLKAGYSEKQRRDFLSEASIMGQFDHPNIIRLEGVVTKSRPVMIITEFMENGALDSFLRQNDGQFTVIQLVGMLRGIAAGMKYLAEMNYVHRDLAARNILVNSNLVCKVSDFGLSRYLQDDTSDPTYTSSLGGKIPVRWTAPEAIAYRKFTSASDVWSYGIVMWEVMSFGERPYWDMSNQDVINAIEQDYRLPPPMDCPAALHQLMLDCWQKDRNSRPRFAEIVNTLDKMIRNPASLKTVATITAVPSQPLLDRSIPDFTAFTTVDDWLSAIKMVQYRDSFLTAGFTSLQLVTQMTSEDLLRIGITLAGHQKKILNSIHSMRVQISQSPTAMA

B1: mouse anti-human EPHA2 antibody A205 (antibody, V domains shown)
VH: QIQLVQSGPELKKPGETVKISCKASGYTFTDYSMNWVKQAPGKGLKWMGWINTYTGEPTYADDFKGRFAFSLETSASTAYLQINNLKNEDTATYFCASPISLLRLLDYWGQGTTLTVSS
VL: DVVMTQTPLSLPVSLGDQASIPCRSSQSLVHSNGNTYLHWYLQKPGQSPKLLIYKVSNRFSGVPDRFSGSGSGTDFTLKISRVEAEDLGVYFCSQSTHVPWTFGGGTKLEIKR
notes: Mouse monoclonal antibody purified from hybridoma supernatant, isotype IgG2b; also called A205 antibody
B2: mouse anti-human EPHA2 antibody A201 (antibody, V domains shown)
VH: EVQLQQSGAELVKPGASVKLSCTVSGFTFKDTYVHWVKQRPEQGLEWIGRIDPANANTKYDPKFQGKASITADTSSNTAYLQLSSLPSEDTAVYYCAAYGKSAWFAYWGQGTLVTVSA
VL: DIQMTQTTSSLSASLGDRVTISCRASQDIGNYLNWYQQKPDGTVKVLIYYTSRLHSGVPSRFSGSGSGTDYSLTISNLEQEDIATYFCQQGHSLPPTFGGGTKLEIKR
notes: Mouse monoclonal antibody purified from hybridoma supernatant, isotype IgG1; also called A201 antibody

Legend:
[1] = target: T1, human EPHB1 without signal sequence, …; assay: flow cytometry on transfected 293F cells
[2] = target: T2, human EPHA4 without signal sequence, FLAG-tagged, expressed from pFLAG-EPHA4 (human, UniProt P54764 20-986); assay: immunohistochemistry on formalin-fixed, paraffin-embedded 293F cells transiently expressing EPHA4; antibody at 2.5 μg/mL
T2 construct: also called EPHA4-expressing cells; not shown: FLAG tag supplied by the vector pFLAG-GW
T2 sequence (P54764 20-986): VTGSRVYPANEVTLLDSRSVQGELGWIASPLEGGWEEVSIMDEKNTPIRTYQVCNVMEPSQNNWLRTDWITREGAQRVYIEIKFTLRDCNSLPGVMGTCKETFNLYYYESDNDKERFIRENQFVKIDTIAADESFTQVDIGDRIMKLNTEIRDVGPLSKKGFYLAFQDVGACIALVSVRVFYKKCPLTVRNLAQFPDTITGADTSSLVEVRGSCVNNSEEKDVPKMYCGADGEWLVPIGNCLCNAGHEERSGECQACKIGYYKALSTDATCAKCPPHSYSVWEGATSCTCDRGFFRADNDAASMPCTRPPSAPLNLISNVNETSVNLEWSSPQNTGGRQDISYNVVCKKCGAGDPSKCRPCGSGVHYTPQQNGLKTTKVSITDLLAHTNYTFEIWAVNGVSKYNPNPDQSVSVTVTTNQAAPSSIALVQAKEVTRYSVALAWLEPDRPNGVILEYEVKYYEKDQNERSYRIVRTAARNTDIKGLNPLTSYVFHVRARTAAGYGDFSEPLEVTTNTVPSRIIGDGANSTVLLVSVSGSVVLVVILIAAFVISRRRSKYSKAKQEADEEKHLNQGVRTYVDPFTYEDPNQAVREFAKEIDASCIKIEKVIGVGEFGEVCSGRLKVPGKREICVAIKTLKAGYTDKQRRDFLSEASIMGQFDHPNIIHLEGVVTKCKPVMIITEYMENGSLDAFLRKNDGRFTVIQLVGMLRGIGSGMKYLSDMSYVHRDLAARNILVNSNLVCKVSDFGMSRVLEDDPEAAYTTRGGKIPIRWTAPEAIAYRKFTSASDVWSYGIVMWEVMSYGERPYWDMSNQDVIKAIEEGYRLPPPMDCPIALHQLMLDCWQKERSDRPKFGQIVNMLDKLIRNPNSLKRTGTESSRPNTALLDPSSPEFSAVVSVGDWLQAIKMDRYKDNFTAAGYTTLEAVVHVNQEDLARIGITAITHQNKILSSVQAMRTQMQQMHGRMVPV

[3] = target: T1, human EPHB1 without signal sequence, …; assay: flow cytometry on 293F cells transfected with pFLAG-EPHB1

Binder	binding result [1]	binding result [2]	binding result [3]
B1	no binding		
B2		binds	binds

— patent WO2016171242A1 (dated 2016)
